From article doi:10.1101/2025.10.30.685675v2

Tested on: CCCC(=O)Oc1ccc([N+](=O)[O-])cc1
Assay: purified protein
Details: pH 8.0; 25.0 °C

SfDLH (Solimonas fluminis) showed a Km of 0.16 mM.
